Positions count from the first letter of the chain named. Numbers in names are those of the source.
B1: C-terminal His6-tagged recombinant wild type mature Omi (Omi lacking the first 133 residues) (protein)
chain: AVPSPPPASPRSQYNFIADVVEKTAPAVVYIEILDRHPFLGREVPISNGSGFVVAADGLIVTNAHVVADRRRVRVRLLSGDTYEAVVTAVDPVADIATLRIQTKEPLPTLPLGRSADVRQGEFVVAMGSPFALQNTITSGIVSSAQRPARDLGLPQTNVEYIQTDAAIDFGNSGGPLVNLDGEVIGVNTMKVTAGISFAIPSDRLREFLHRGEKKNSSSGISGSQRRYIGVMMLTLSPSILAELQLREPSFPDVQHGVLIHKVILGSPAHRAGLRPGDVILAIGEQMVQNAEDVYEAVRTQSQLAVQIRRGRETLTLYVTPEVTEHHHHHH
B2: Omi-S306A (C-terminal His6-tagged recombinant mature Omi, active site Ser306 to Ala) (protein)
chain: B1 chain with S173A
B3: Omi-deltaAVPS (C-terminal His6-tagged recombinant mature Omi with the AVPS motif deleted) (protein)
chain: PPPASPRSQYNFIADVVEKTAPAVVYIEILDRHPFLGREVPISNGSGFVVAADGLIVTNAHVVADRRRVRVRLLSGDTYEAVVTAVDPVADIATLRIQTKEPLPTLPLGRSADVRQGEFVVAMGSPFALQNTITSGIVSSAQRPARDLGLPQTNVEYIQTDAAIDFGNSGGPLVNLDGEVIGVNTMKVTAGISFAIPSDRLREFLHRGEKKNSSSGISGSQRRYIGVMMLTLSPSILAELQLREPSFPDVQHGVLIHKVILGSPAHRAGLRPGDVILAIGEQMVQNAEDVYEAVRTQSQLAVQIRRGRETLTLYVTPEVTEHHHHHH

Target: XIAP, P98170
Sequence (P98170 whole entry): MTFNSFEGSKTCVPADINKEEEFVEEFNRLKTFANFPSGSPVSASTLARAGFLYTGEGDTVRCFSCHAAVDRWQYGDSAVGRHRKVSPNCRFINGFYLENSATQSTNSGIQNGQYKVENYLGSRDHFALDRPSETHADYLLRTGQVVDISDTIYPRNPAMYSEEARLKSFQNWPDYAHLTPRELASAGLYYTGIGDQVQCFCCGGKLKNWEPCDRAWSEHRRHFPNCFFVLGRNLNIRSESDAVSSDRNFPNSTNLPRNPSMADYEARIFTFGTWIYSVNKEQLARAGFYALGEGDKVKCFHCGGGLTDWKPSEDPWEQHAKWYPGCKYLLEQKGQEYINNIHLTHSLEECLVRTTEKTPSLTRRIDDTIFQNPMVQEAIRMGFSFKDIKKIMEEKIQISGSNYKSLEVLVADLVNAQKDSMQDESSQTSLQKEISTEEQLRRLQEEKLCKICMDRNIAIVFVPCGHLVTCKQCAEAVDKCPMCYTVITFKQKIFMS

Protein | procaspase-3 activation in XIAP-containing S100 extracts stimulated with cytochrome c and dATP
B1 | mature WT Omi or the S306A mutant were able to promote procaspase-3 activation in the XIAP-containing S100 extracts almost to the same extent as Smac
B2 | mature WT Omi or the S306A mutant were able to promote procaspase-3 activation in the XIAP-containing S100 extracts almost to the same extent as Smac
B3 | deletion of this motif abolished its caspase-promoting activity
